From the supplement of paper PMC6755084

B1: F1*; the commonest letter at each place (parent)
chain: GAGACCGCAACTGAAAAGTTGTTATCACTTGTCGTAAGACACTTTGGATGGGTTGAAGTTCTGCACGTAGAAGCAAAAGGC

Variants of: B1
Test: fraction ligated after 30 min (ligated reads / total reads); higher = more ligase activity
Conditions: with F1*sub RNA substrate (template-directed ligation), 42 °C
Outline: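 Ligase ribozyme variants were made from oligo-pool templates by PCR amplification, T7 transcription and gel purification. After gel separation, ligated and unligated bands were reverse transcribed with barcoded primers and sequenced on a MiSeq, with core bases filtered at quality ≥20. The fraction ligated for each variant was the number of ligated reads divided by total reads.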

Variant	fraction ligated
G38T C42G	0.845
G38T C42A	0.842
G38T C42T	0.851
A39G T44C	0.849
A39G T44A	0.816
A39G T44G	0.836
G38T A57C	0.811
G38T A57G	0.862
G38T A57T	0.812
A39C G55A	0.821
A39C G55C	0.695
A39C G55T	0.802
G38T T43C	0.814
G38T T43A	0.808
G38T T43G	0.773
A39G C42A	0.829
A39G C42G	0.834
A39G C42T	0.843
G38C A41G	0.793
G38C A41T	0.785
G38C A41C	0.807
A39G G46C	0.781
A39G G46A	0.843
A39G G46T	0.783

Variant	fraction ligated
G38A T43A	0.835
G38A T43C	0.816
G38A T43G	0.8
G38T C40A	0.836
G38T C40G	0.82
G38T C40T	0.805
A39T G46C	0.64
A39T G46A	0.805
A39T G46T	0.771
G38C A56G	0.7
G38C A56C	0.209
G38C A56T	0.813
A39C G46T	0.776
A39C G46A	0.802
A39C G46C	0.764
G38A G47A	0.796
G38A G47C	0.163
G38A G47T	0.324
C40A A56C	0.711
C40A A56T	0.812
C40A A56G	0.785
A39G G47T	0.389
A39G G47C	0.343
A39G G47A	0.795

Variant	fraction ligated
G38C T44A	0.845
G38C T44C	0.819
G38C T44G	0.839
G38A A48G	0.796
G38A A48C	0.766
G38A A48T	0.252
G38C A48T	0.0108
G38C A48G	0.53
G38C A48C	0.269
C40A A48T	0.0719
C40A A48G	0.739
C40A A48C	0.658
G38A T44C	0.818
G38A T44G	0.848
G38A T44A	0.838
C40G A41T	0.768
C40G A41G	0.807
C40G A41C	0.784
A39T G55T	0.804
A39T G55A	0.786
A39T G55C	0.738
G38A A41T	0.793
G38A A41G	0.765
G38A A41C	0.782

Variant	fraction ligated
A39T A56C	0.761
A39T A56T	0.807
A39T A56G	0.78
A39T C42A	0.846
A39T C42T	0.829
A39T C42G	0.817
A39C T49A	0.706
A39C T49C	0.159
A39C T49G	0.737
A39G G55C	0.801
A39G G55T	0.819
A39G G55A	0.844
G38A T49G	0.785
G38A T49A	0.782
G38A T49C	0.245
A39T T44G	0.827
A39T T44A	0.79
A39T T44C	0.821
A39G G50T	0.789
A39G G50C	0.507
A39G G50A	0.671
C40G A48T	0.715
C40G A48C	0.768
C40G A48G	0.786

Variant	fraction ligated
G38A A56C	0.778
G38A A56T	0.808
G38A A56G	0.783
A39G A48C	0.766
A39G A48G	0.814
A39G A48T	0.824
C40A T43A	0.856
C40A T43G	0.801
C40A T43C	0.768
G38A G55C	0.781
G38A G55T	0.811
G38A G55A	0.838
G38A G50A	0.391
G38A G50T	0.72
G38A G50C	0.194
G38T G46C	0.787
G38T G46A	0.801
G38T G46T	0.782
G38C C40G	0.813
G38C C40A	0.811
G38C C40T	0.802
A37T T49A	0.802
A37T T49G	0.791
A37T T49C	0.733

Variant	fraction ligated
C40A A57G	0.843
C40A A57T	0.792
C40A A57C	0.812
G38T T45C	0.627
G38T T45G	0.0535
G38T T45A	0.783
G38T A56G	0.806
G38T A56T	0.826
G38T A56C	0.745
C40A	0.833
C40G	0.816
G38T T44A	0.823
G38T T44G	0.828
G38T T44C	0.831
C40A G46C	0.817
C40A G46T	0.792
C40A G46A	0.819
A39C T43G	0.79
A39C T43A	0.822
A39C T43C	0.815
A39C A56C	0.746
A39C A56G	0.779
A39C A56T	0.771
G38T G50C	0.134

Variant	fraction ligated
G38T G50T	0.723
G38T G50A	0.386
G38C T43G	0.812
G38C T43A	0.825
G38C T43C	0.822
A37T T43G	0.804
A37T T43C	0.806
A37T T43A	0.848
G38A A39G	0.854
G38A A39C	0.817
G38A A39T	0.829
A39C T45C	0.634
A39C T45A	0.778
A39C T45G	0.138
G38T G55T	0.798
G38T G55A	0.823
G38T G55C	0.781
A39C C40G	0.811
A39C C40A	0.797
A39C C40T	0.784
G38C T49C	0.0586
G38C T49G	0.255
G38C T49A	0.233
C40A C42G	0.803

Variant	fraction ligated
C40A C42A	0.821
C40A C42T	0.818
A39T A41T	0.775
A39T A41C	0.782
A39T A41G	0.769
G38C T45G	0.0325
G38C T45C	0.0602
G38C T45A	0.551
G38C G46C	0.523
G38C G46A	0.791
G38C G46T	0.697
C40G A56C	0.784
C40G A56G	0.766
C40G A56T	0.805
A39T T45C	0.676
A39T T45G	0.1
A39T T45A	0.744
A39G T43A	0.838
A39G T43C	0.814
A39G T43G	0.815
A39T T49C	0.0992
A39T T49A	0.717
A39T T49G	0.769
A39G C40T	0.844

Variant	fraction ligated
A39G C40A	0.839
A39G C40G	0.802
G38A T45C	0.696
G38A T45A	0.773
G38A T45G	0.0379
G38T T49C	0.204
G38T T49A	0.757
G38T T49G	0.76
C40A T45A	0.66
C40A T45C	0.358
C40A T45G	0.0271
A39C A41G	0.741
A39C A41T	0.751
A39C A41C	0.792
A39C C42T	0.827
A39C C42G	0.834
A39C C42A	0.842
G38T G47C	0.114
G38T G47T	0.139
G38T G47A	0.762
G38T A39T	0.817
G38T A39C	0.79
G38T A39G	0.798
C40G A57G	0.8

Variant	fraction ligated
C40G A57C	0.788
A39G A57T	0.829
A39G A57G	0.823
A39G A57C	0.821
G38C G50A	0.101
G38C G50C	0.0192
G38C G50T	0.314
A39G A56T	0.781
A39G A56C	0.787
A39G A56G	0.792
G38A C42T	0.87
G38A C42G	0.837
G38A C42A	0.854
A39G T49A	0.805
A39G T49C	0.714
A39G T49G	0.791
G38A A57C	0.825
G38A A57G	0.855
G38A A57T	0.819
A39T A57T	0.781
A39T A57G	0.869
A39T A57C	0.792
G38T	0.852
G38C	0.825

Variant	fraction ligated
G38A	0.844
G38A C40T	0.833
G38A C40G	0.843
G38A C40A	0.83
G38C C42T	0.841
G38C C42G	0.843
G38C C42A	0.857
G38T A48C	0.757
G38T A48G	0.792
G38T A48T	0.129
A39T G47C	0.229
A39T G47T	0.22
A39T G47A	0.759
A39T A48C	0.633
A39T A48T	0.541
A39T A48G	0.778
A39C A48C	0.0845
A39C A48T	0.465
A39C A48G	0.776
G38C G47T	0.045
G38C G47C	0.0356
G38C G47A	0.306
C40A G55T	0.787
C40A G55C	0.504

Variant	fraction ligated
C40A G55A	0.807
G38C A57T	0.828
G38C A57C	0.824
G38C A57G	0.87
G38A G46T	0.791
G38A G46A	0.805
G38A G46C	0.792
C40A T44G	0.779
C40A T44C	0.794
C40A T44A	0.823
A39G T45C	0.792
A39G T45A	0.784
A39G T45G	0.389
C40A G47T	0.341
C40A G47A	0.769
C40A G47C	0.25
C40A T49C	0.116
C40A T49A	0.517
C40A T49G	0.674
A39C T44A	0.799
A39C T44C	0.797
A39C T44G	0.801
C40A A41C	0.811
C40A A41T	0.81

Variant	fraction ligated
C40A A41G	0.766
A39T	0.833
A39G	0.839
A39C	0.832
G38T A41T	0.798
G38T A41G	0.792
G38T A41C	0.785
G38C A39T	0.806
G38C A39C	0.752
G38C A39G	0.811
A39T C40G	0.808
A39T C40A	0.818
A39T C40T	0.809
A39C G47T	0.3
A39C G47A	0.757
A39C G47C	0.349
A37T T44A	0.834
A37T T44C	0.847
A37T T44G	0.825
A37T G55T	0.828
A37T G55C	0.8
A37T G55A	0.862
A39C A57G	0.786
A39C A57T	0.798

Variant	fraction ligated
A39C A57C	0.827
A39G A41G	0.791
A39G A41T	0.796
A39G A41C	0.781
A39C G50A	0.292
A39C G50C	0.123
A39C G50T	0.503
A39T T43C	0.795
A39T T43A	0.829
A39T T43G	0.772
G38C G55T	0.768
G38C G55C	0.321
G38C G55A	0.826
C40A G50T	0.488
C40A G50A	0.212
C40A G50C	0.123
A39T G50A	0.239
A39T G50C	0.0837
A39T G50T	0.413
A37T T45A	0.787
A37T T45G	0.408
A37T T45C	0.768
